According to article PMC4004597:

Legend:
[1] = target: S. cerevisiae Nup57 of the short scNup49-Nup57-Nsp1 complex (S. cerevisiae) (UniProt P48837); experiment: AUC
[2] = target: S. cerevisiae Nup57 of the short scNup49-Nup57-Nsp1 complex (S. cerevisiae) (UniProt P48837); experiment: SEC
[3] = target: S. cerevisiae Nsp1 of the short scNup49-Nup57-Nsp1 complex (S. cerevisiae) (UniProt P14907); experiment: AUC
[4] = target: S. cerevisiae Nsp1 of the short scNup49-Nup57-Nsp1 complex (S. cerevisiae) (UniProt P14907); experiment: SEC

Sequence of S. cerevisiae Nup57 of the short scNup49-Nup57-Nsp1 complex (S. cerevisiae) (P48837 whole entry, one chain of several): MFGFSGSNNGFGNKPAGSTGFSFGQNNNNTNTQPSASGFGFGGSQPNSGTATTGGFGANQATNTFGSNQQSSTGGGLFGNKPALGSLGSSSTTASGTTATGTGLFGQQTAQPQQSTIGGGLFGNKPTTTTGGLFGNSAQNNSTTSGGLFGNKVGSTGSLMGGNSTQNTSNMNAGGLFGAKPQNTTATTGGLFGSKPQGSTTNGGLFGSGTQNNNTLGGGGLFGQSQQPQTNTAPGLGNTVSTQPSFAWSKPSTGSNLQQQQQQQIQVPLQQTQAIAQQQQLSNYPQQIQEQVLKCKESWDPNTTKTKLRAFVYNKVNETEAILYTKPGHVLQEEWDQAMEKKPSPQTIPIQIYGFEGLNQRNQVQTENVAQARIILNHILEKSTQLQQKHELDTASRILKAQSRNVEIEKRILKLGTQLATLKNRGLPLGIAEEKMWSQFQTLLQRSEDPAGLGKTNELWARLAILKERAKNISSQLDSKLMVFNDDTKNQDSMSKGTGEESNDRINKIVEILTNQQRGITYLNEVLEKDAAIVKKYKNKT

| stoichiometry N [1] | stoichiometry N [2] | stoichiometry N [3] | stoichiometry N [4] | Substance |
| --- | --- | --- | --- | --- |
| 1 | 1 | – | – | S. cerevisiae Nup49 of the short scNup49-Nup57-Nsp1 complex (from UniProt Q02199 1-472) (domain or fragment) |
| – | – | 1 | 1 | S. cerevisiae Nup57 of the short scNup49-Nup57-Nsp1 complex (from UniProt P48837 1-541) (domain or fragment) |
